Our source for the stoichiometry N values is publication PMC7354611.

The test addresses Bacillus cereus MazF (mRNA interferase BC0266) (Bacillus cereus). Put plainly: SEC; Superdex 75 10/300 GL column, with reference proteins of the Gel Filtration Calibration Kits (GE Healthcare); His-tagged MazF eluted at almost the same time as carbonic anhydrase (29 kDa). In general terms: In gel filtration, larger molecules generally elute earlier.

Usually stoichiometry N stands for a count of units in the complex or per binding partner.

Substance “Bacillus cereus MazF (mRNA interferase BC0266) (natural protein)” returned a stoichiometry N of 2.
